Experimental data from patent US20100074852A1.

Assays:
[1] = target: human Neurokinin NK2 receptor (human) (UniProt P21452); experiment: radio-ligand competition binding (CEREP), reference compound, human receptor in recombinant mammalian cells; radioligand not named
[2] = target: human Neurokinin NK2 receptor (human) (UniProt P21452); experiment: radio-ligand competition binding (CEREP), second screen, reference compound; radioligand not named

human Neurokinin NK2 receptor (human), sequence (P21452 whole entry): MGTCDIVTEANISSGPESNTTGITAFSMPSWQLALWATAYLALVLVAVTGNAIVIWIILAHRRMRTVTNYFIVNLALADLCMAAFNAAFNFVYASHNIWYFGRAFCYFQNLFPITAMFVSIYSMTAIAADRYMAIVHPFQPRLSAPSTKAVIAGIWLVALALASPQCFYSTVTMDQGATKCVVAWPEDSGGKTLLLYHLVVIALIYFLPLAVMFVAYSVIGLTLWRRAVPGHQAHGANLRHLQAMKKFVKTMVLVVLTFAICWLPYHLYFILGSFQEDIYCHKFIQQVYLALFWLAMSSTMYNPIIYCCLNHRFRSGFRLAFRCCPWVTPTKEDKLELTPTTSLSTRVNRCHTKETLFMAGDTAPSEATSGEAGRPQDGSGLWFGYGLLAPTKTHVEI

Substance: [Nle10]-NKA(4-10) (from UniProt P20366 101-107) (peptide)
- IC50 [1]: 9.3 nM
- IC50 [2]: 9.7 nM
